According to paper PMC3197142, “Direct Identification of Insulator Components by Insertional Chromatin Immunoprecipitation” (PLoS ONE, 2011):

Target: T1, GST-Matrin-3 (human, UniProt P43243-1 1-847)
T1 construct: human Matrin-3, cDNA GenBank NM_199189, inserted downstream of the GST gene in pGEX-6P-1; also called GST-fused Matrin-3; pGEX-Matrin-3; source: E. coli BL21-CodonPlus(DE3)-RIPL, purified (Glutathione Sepharose 4B); not shown: GST, N-terminal, kept
T1 sequence (looked up): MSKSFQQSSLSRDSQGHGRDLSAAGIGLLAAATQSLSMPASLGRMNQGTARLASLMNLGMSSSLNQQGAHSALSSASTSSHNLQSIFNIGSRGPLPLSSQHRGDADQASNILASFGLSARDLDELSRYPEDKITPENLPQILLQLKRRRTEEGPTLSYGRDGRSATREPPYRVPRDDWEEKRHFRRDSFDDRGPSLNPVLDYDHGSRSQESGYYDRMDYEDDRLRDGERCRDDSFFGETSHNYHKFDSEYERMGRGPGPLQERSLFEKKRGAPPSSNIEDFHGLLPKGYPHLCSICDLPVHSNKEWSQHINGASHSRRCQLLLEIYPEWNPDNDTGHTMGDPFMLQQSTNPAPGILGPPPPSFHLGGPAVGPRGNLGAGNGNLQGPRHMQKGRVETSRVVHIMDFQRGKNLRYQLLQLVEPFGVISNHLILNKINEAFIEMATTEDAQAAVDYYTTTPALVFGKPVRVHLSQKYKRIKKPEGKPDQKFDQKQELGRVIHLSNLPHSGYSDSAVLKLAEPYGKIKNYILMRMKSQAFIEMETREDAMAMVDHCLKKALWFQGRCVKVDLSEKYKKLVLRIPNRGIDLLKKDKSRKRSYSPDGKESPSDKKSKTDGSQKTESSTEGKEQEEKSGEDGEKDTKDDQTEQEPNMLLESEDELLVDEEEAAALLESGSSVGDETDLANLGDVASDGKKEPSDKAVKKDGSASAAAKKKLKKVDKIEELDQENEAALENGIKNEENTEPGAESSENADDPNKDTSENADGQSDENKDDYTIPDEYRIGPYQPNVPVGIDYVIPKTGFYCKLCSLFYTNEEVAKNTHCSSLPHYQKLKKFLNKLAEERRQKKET
Assay: pull-down; purified GST-Matrin-3 (50 ng) incubated with purified MBP-fused proteins (50 ng) in Interaction Buffer (20 mM Tris pH 8.0, 137 mM NaCl, 1.5 mM MgCl2, 1 mM EGTA, 0.1% Triton X-100, 10% glycerol), 1.5 h at 4°C; captured on Glutathione Sepharose 4B; immunoblot with anti-MBP Ab
Settings: both partners purified

Row | Binder | binding result
1 | MBP-p68 (natural protein, human, UniProt P17844-1 1-614, looked up, human p68 (DDX5), cDNA GenBank NM_004396, inserted downstream of the MBP gene in pMAL-x5c; also called p68/DDX5; source: E. coli BL21-CodonPlus(DE3)-RIPL, purified (Amylose resin); not shown: MBP, N-terminal, kept) MSGYSSDRDRGRDRGFGAPRFGGSRAGPLSGKKFGNPGEKLVKKKWNLDELPKFEKNFYQEHPDLARRTAQEVETYRRSKEITVRGHNCPKPVLNFYEANFPANVMDVIARQNFTEPTAIQAQGWPVALSGLDMVGVAQTGSGKTLSYLLPAIVHINHQPFLERGDGPICLVLAPTRELAQQVQQVAAEYCRACRLKSTCIYGGAPKGPQIRDLERGVEICIATPGRLIDFLECGKTNLRRTTYLVLDEADRMLDMGFEPQIRKIVDQIRPDRQTLMWSATWPKEVRQLAEDFLKDYIHINIGALELSANHNILQIVDVCHDVEKDEKLIRLMEEIMSEKENKTIVFVETKRRCDELTRKMRRDGWPAMGIHGDKSQQERDWVLNEFKHGKAPILIATDVASRGLDVEDVKFVINYDYPNSSEDYIHRIGRTARSTKTGTAYTFFTPNNIKQVSDLISVLREANQAINPKLLQLVEDRGSGRSRGRGGMKDDRRDRYSAGKRGGFNTFRDRENYDRGYSSLLKRDFGAKTQNGVYSAANYTNGSFGSNFVSAGIQTSFRTGNPTGTYQNGYDSTQQYGSNVPNMHNGMNQQAYAYPATAAAPMIGYPMPTGYSQ | binds
2 | MBP-CTCF (natural protein, human, UniProt P49711-1 1-727, looked up, source: E. coli BL21-CodonPlus(DE3)-RIPL, purified (Amylose resin); not shown: MBP, N-terminal, kept) MEGDAVEAIVEESETFIKGKERKTYQRRREGGQEEDACHLPQNQTDGGEVVQDVNSSVQMVMMEQLDPTLLQMKTEVMEGTVAPEAEAAVDDTQIITLQVVNMEEQPINIGELQLVQVPVPVTVPVATTSVEELQGAYENEVSKEGLAESEPMICHTLPLPEGFQVVKVGANGEVETLEQGELPPQEDPSWQKDPDYQPPAKKTKKTKKSKLRYTEEGKDVDVSVYDFEEEQQEGLLSEVNAEKVVGNMKPPKPTKIKKKGVKKTFQCELCSYTCPRRSNLDRHMKSHTDERPHKCHLCGRAFRTVTLLRNHLNTHTGTRPHKCPDCDMAFVTSGELVRHRRYKHTHEKPFKCSMCDYASVEVSKLKRHIRSHTGERPFQCSLCSYASRDTYKLKRHMRTHSGEKPYECYICHARFTQSGTMKMHILQKHTENVAKFHCPHCDTVIARKSDLGVHLRKQHSYIEQGKKCRYCDAVFHERYALIQHQKSHKNEKRFKCDQCDYACRQERHMIMHKRTHTGEKPYACSHCDKTFRQKQLLDMHFKRYHDPNFVPAAFVCSKCGKTFTRRNTMARHADNCAGPDGVEGENGGETKKSKRGRKRKMRSKKEDSSDSENAEPDLDDNEDEEEPAVEIEPEPEPQPVTPAPPPAKKRRGRPPGRTNQPKQNQPTAIIQVEDQNTGAIENIIVEVKKEPDAEPAEGEEEEAQPAATDAPNGDLTPEMILSMMDR | binds
